T1: human CD73 (huCD73) protein, antigen of the Biacore assay (human, UniProt P21589 27-547, limits assumed)
T1 construct: also called human CD73 antigen
T1 sequence (looked up): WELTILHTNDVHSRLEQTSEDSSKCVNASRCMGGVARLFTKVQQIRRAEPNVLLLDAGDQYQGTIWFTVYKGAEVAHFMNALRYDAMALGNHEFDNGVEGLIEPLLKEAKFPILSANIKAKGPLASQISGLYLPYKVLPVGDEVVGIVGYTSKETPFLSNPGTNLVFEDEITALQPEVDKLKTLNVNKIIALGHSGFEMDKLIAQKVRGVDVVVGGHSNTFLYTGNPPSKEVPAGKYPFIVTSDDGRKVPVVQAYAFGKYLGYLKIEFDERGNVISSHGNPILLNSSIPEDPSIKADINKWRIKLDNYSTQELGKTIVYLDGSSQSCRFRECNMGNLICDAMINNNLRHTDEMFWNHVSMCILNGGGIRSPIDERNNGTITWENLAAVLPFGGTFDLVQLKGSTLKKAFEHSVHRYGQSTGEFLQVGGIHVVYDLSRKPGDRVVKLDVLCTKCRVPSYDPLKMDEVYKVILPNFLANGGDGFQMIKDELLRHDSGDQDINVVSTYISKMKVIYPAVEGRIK

B1: Hab108.33 (antibody, V domains shown)
VH: EVTLKESGPVLVKPTETLTLTCTVSGFSLSSYGIQWVRQPPGKLLEWLGVIWSGGSADYNAAFISRLTISKDTSKSQVVLTMTNMDPVDTATYYCAGQYGSVWGQGTLVTVSS
VL: DIQMTQSPSSLSASVGDRVTITCRASQDIGDRLNWLQQKPGGAIKRLIYATSSLDSGVPSRFSGSGSGTEYTLTISSLQPEDFATYYCLQYAGSWTFGGGTKVEIK
notes: VL3 + VH3; full-length antibody
B2: Hab108.53 (antibody, V domains shown)
VH: EVTLKESGPVLVKPTETLTLTCTVSGFSLSSYGIQWVRQPPGKLLEWLGVIWSGGSADYNAAFISRLTISKDTSKSQVVLTMTNMDPVDTATYYCAGQYGSVWGQGTLVTVSS
VL: DIQMTQSPSSLSASVGDRVTITCRASQDIGDRLNWLQQKPGKAIKRLIYATSSLDSGVPKRFSGSGSGTEYTLTISSLQPEDFATYYCLQYAGSWTFGGGTKVEIK
notes: VL5 + VH3; full-length antibody
B3: Hab108.35 (antibody, V domains shown)
VH: EVTLKESGPVLVKPTETLTLTCTVSGFSLKSYGIQWVRQPPGKLLEWLGVIWSGGSADYNAAFISRLTISKDTSKSQVVLTMTNMDPVDTATYYCAGQYGSVWGQGTLVTVSS
VL: DIQMTQSPSSLSASVGDRVTITCRASQDIGDRLNWLQQKPGGAIKRLIYATSSLDSGVPSRFSGSGSGTEYTLTISSLQPEDFATYYCLQYAGSWTFGGGTKVEIK
notes: VL3 + VH5; full-length antibody
B4: Hab108.34 (antibody, V domains shown)
VH: EVTLKQSGPGLVKPTETLTLTCTVSGFSLSSYGIQWVRQPPGKGLEWLGVIWSGGSADYNAAFISRLTISKDTSKSQVVLTMTNMDPVDTATYYCAGQYGSVWGQGTLVTVSS
VL: DIQMTQSPSSLSASVGDRVTITCRASQDIGDRLNWLQQKPGGAIKRLIYATSSLDSGVPSRFSGSGSGTEYTLTISSLQPEDFATYYCLQYAGSWTFGGGTKVEIK
notes: VL3 + VH4; full-length antibody
B5: Hab108.25 (antibody, V domains shown)
VH: EVTLKESGPVLVKPTETLTLTCTVSGFSLKSYGIQWVRQPPGKLLEWLGVIWSGGSADYNAAFISRLTISKDTSKSQVVLTMTNMDPVDTATYYCAGQYGSVWGQGTLVTVSS
VL: DIQMTQSPSSLSASVGDRVTITCRASQDIGDRLNWLQQKPGKAIKRLIYATSSLDSGVPSRFSGSGSGTEYTLTISSLQPEDFATYYCLQYAGSWTFGGGTKVEIK
notes: VL2 + VH5; full-length antibody
B6: Hab108.15 (antibody, V domains shown)
VH: EVTLKESGPVLVKPTETLTLTCTVSGFSLKSYGIQWVRQPPGKLLEWLGVIWSGGSADYNAAFISRLTISKDTSKSQVVLTMTNMDPVDTATYYCAGQYGSVWGQGTLVTVSS
VL: DIQMTQSPSSLSASVGDRVTITCRASQDIGDRLNWYQQKPGKAPKRLIYATSSLDSGVPSRFSGSGSGTEFTLTISSLQPEDFATYYCLQYAGSWTFGGGTKVEIK
notes: VL1 + VH5; full-length antibody
B7: Hab108.62 (antibody, V domains shown)
VH: EVTLKESGPVLVKPTETLTLTCTVSGFSLSSYGIQWIRQPPGKLLEWLAVIWSGGSADYNAAFISRLTISKDTSKSQVVLTMTNMDPVDTATYYCAGQYGSVWGQGTLVTVSS
VL: DIQMTQSPSSLSASVGDRVTITCRASQDIGDRLNWLQQKPGGAIKRLIYATSSLDSGVPKRFSGSGSGTEYTLTISSLQPEDFATYYCLQYAGSWTFGGGTKVEIK
notes: VL6 + VH2; full-length antibody
B8: Hab108.45 (antibody, V domains shown)
VH: EVTLKESGPVLVKPTETLTLTCTVSGFSLKSYGIQWVRQPPGKLLEWLGVIWSGGSADYNAAFISRLTISKDTSKSQVVLTMTNMDPVDTATYYCAGQYGSVWGQGTLVTVSS
VL: DIQMTQSPSSLSASVGDRVTITCRASQDIGDRLNWLQQKPGGAIKRLIYATSSLDSGVPSRFSGSGSGSEYTLTISSLQPEDFADYYCLQYAGSWTFGGGTKVEIK
notes: VL4 + VH5; full-length antibody
B9: Hab108.23 (antibody, V domains shown)
VH: EVTLKESGPVLVKPTETLTLTCTVSGFSLSSYGIQWVRQPPGKLLEWLGVIWSGGSADYNAAFISRLTISKDTSKSQVVLTMTNMDPVDTATYYCAGQYGSVWGQGTLVTVSS
VL: DIQMTQSPSSLSASVGDRVTITCRASQDIGDRLNWLQQKPGKAIKRLIYATSSLDSGVPSRFSGSGSGTEYTLTISSLQPEDFATYYCLQYAGSWTFGGGTKVEIK
notes: VL2 + VH3; full-length antibody
B10: Hab108.63 (antibody, V domains shown)
VH: EVTLKESGPVLVKPTETLTLTCTVSGFSLSSYGIQWVRQPPGKLLEWLGVIWSGGSADYNAAFISRLTISKDTSKSQVVLTMTNMDPVDTATYYCAGQYGSVWGQGTLVTVSS
VL: DIQMTQSPSSLSASVGDRVTITCRASQDIGDRLNWLQQKPGGAIKRLIYATSSLDSGVPKRFSGSGSGTEYTLTISSLQPEDFATYYCLQYAGSWTFGGGTKVEIK
notes: VL6 + VH3; full-length antibody
B11: Hab108.52 (antibody, V domains shown)
VH: EVTLKESGPVLVKPTETLTLTCTVSGFSLSSYGIQWIRQPPGKLLEWLAVIWSGGSADYNAAFISRLTISKDTSKSQVVLTMTNMDPVDTATYYCAGQYGSVWGQGTLVTVSS
VL: DIQMTQSPSSLSASVGDRVTITCRASQDIGDRLNWLQQKPGKAIKRLIYATSSLDSGVPKRFSGSGSGTEYTLTISSLQPEDFATYYCLQYAGSWTFGGGTKVEIK
notes: VL5 + VH2; full-length antibody
B12: Hab108.65 (antibody, V domains shown)
VH: EVTLKESGPVLVKPTETLTLTCTVSGFSLKSYGIQWVRQPPGKLLEWLGVIWSGGSADYNAAFISRLTISKDTSKSQVVLTMTNMDPVDTATYYCAGQYGSVWGQGTLVTVSS
VL: DIQMTQSPSSLSASVGDRVTITCRASQDIGDRLNWLQQKPGGAIKRLIYATSSLDSGVPKRFSGSGSGTEYTLTISSLQPEDFATYYCLQYAGSWTFGGGTKVEIK
notes: VL6 + VH5; full-length antibody
B13: CH110 (antibody, V domains shown)
VH: QVQLQQSGAELARPGASVQMSCKASGYIFTSYTMHWVKQRPGQGLEWIGYINPNSFYIEYNQKFKDKATLTADTSSSTAYMQLSSLTSEDSAVYYCARGDYDLFYDMDNWGQGTSVTVSS
VL: DIQMTQSPSSLSASLGERVSLTCRASQDIGNSLNWLQQEPDGTIKRLIYATFRLDSGVPKRFSGSRSGSDYSLTISSLESEDFVDYYCQQYASFPWTFGGGTKLEIK
notes: also called chimeric antibody of mab110
B14: CH127 (antibody, V domains shown)
VH: EVQLQQSGPELVKPGESVKISCKASGYSFTAYFMNWVMQSHRKSLEWIGRIYHNNGDTFYSQKFKGKATLTVDKSSNTVHMELRSLTSEDSAVYFCATSYVGDWGQGTTLTVSS
VL: DIQMTQSPSSLSASLGERVSLTCRASQDIGDSLNWLQQAPDGTLKRLIYATSSLDSGVPRRFSGSRSGSDYSLTISSLESEDFVDYYCLQYASFPWTFGGGTKLEIK
notes: also called chimeric antibody of mab127

Each molecule was assayed against human CD73 on tumor cell line MDA-MB-231 that highly expresses human CD73 (human) (UniProt P21589) (assay: cell-based or functional assay).
Work on “MEDI9447 (antibody MEDI9447 disclosed in patent application WO2016075099)” yielded an IC50 (nM) in the assay showing the inhibition of enzyme activity in MDA-MB-231 cell of 0.565 nM.

What follows are molecules tested against T1, human CD73 (huCD73) protein, antigen of … (assay: SPR Biacore T200; antibody captured on Protein A chip, CD73 in flow; 1:1 Langmuir).
Text: In this experiment, Biacore instrument was used to determine the affinity of the humanized anti-CD73 antibodies to be tested with human CD73 (huCD73) and monkey CD73 (cynoCD73).
A certain amount of test antibody was affinity-captured with Protein A biosensing chip (Cat. #29127556, GE), and then a certain concentration of human or monkey CD73 antigen was allowed to flow through the surface of the chip. The reaction signals were detected in real time with Biacore instrument (Biacore T200, GE) to generate a binding and dissociation curve. At the end of each cycle, after the dissociation was completed, the biosensor chip was washed and regenerated with Glycine-HCl, pH1.5 (Cat. #BR-1003-54, GE). The running buffer for the assay was 1×HBS-EP buffer solution (Cat. #BR-1001-88, GE).
The data obtained from the experiment was fitted against (1:1) Langmuir model using GE Biacore T200 Evaluation version 3.0 software, and the affinity values were obtained, as shown in Table 12 and Table 13 for details.
For B1, the Kd was 0.481 nM, the koff was 0.000123 s⁻¹ and the kon was 255000 M⁻¹ s⁻¹. B2 gave a Kd of 0.609 nM, a koff of 0.000156 s⁻¹ and a kon of 257000 M⁻¹ s⁻¹. B3 was tested, and the Kd was 0.28 nM, the koff was 8.09e-05 s⁻¹ and the kon was 290000 M⁻¹ s⁻¹. For B4, the Kd was 0.999 nM, the koff was 0.000106 s⁻¹ and the kon was 106000 M⁻¹ s⁻¹. In the case of B5, the Kd is reported as 0.349 nM, the koff is reported as 0.000101 s⁻¹ and the kon is reported as 290000 M⁻¹ s⁻¹. With B6 the Kd was 0.485 nM, the koff was 0.000121 s⁻¹ and the kon was 249000 M⁻¹ s⁻¹. With B7 the Kd was 0.382 nM, the koff was 8.68e-05 s⁻¹ and the kon was 227000 M⁻¹ s⁻¹. With B8 the Kd was 0.253 nM, the koff was 7.38e-05 s⁻¹ and the kon was 292000 M⁻¹ s⁻¹. B9 gave a Kd of 0.913 nM, a koff of 0.000187 s⁻¹ and a kon of 205000 M⁻¹ s⁻¹. With B10 the Kd was 0.513 nM, the koff was 0.000117 s⁻¹ and the kon was 228000 M⁻¹ s⁻¹. Work on B11 yielded a Kd of 0.93 nM, a koff of 0.000241 s⁻¹ and a kon of 260000 M⁻¹ s⁻¹. Molecule B12 has a Kd of 0.246 nM, a koff of 6.93e-05 s⁻¹ and a kon of 281000 M⁻¹ s⁻¹. With B13 the Kd was 0.265 nM, the koff was 0.000147 s⁻¹ and the kon was 556000 M⁻¹ s⁻¹. Molecule B14 has a Kd of 0.139 nM, a koff of 3.31e-05 s⁻¹ and a kon of 239000 M⁻¹ s⁻¹.

From patent publication US20220220218A1 (JIANGSU HENGRUI MEDICINE, published 2022)
